According to US20230174604A1 (Innovent, published 2023):

Molecular target: T1, IL-2Rα-Biotin (biotin-labeled human IL-2Rα, UniProt P01589 aa22-217, with C-terminal avi tag and His6 tag) (human, UniProt P01589 22-217, biotin on the avi tag (enzymatic labeling with BirA))
T1 construct: Expressed in HEK293-F, monomer peak collected; loaded on SA sensor or used to stain yeast; also called CD25; IL-2Rα receptor
T1 sequence: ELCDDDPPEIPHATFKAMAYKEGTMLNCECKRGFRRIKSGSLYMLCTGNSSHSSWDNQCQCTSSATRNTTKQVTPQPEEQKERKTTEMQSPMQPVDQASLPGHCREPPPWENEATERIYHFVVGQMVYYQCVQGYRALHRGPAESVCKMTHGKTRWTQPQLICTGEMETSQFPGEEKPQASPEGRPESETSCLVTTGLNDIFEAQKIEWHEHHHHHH
Experiment: flow cytometry, yeast-displayed IL-2 stained with IL-2Rα-Biotin
Method: Yeast cells comprising a single mutant sequence after sequencing were induced by shaking at 20° C. for 24 h to display IL-2^mutant, and stained together with their receptors IL-2Rα-Biotin and IL-2Rβ IH-Biotin, respectively. The specific steps were as follows: [0191] […] 1. 1×10⁶ cells from each sample were centrifuged to discard the supernatant, and washed with FACS buffer once for later use; [0193] 2. the cells were added to 100 μL of FACS buffer containing 50 nM IL-2Rα-Biotin and Anti Flag antibody, and incubated at room temperature for 30 min; [0194] 3. the mixture was centrifuged at 3000 rpm at 4° C. for 3 min, and washed twice with pre-cooled FACS buffer; [0195] 4. […] 5. after being washed twice with pre-cooled FACS buffer, the cells were resuspended in 100 μL of buffer, and the binding level of IL-2^mutant to IL-2Rα was assayed by a flow cytometer (BD, ACCURI C6). [0197] II. […] 1. 1×10⁶ cells from each sample were centrifuged to discard the supernatant, and washed with FACS buffer once for later use; [0199] 2. the cells were added to 100 μL of FACS buffer containing IL-2Rβ IH-Biotin (30 nM-100 nM) and Anti Flag antibody, and incubated at room temperature for 30 min; [0200] 3. following steps 3-5 described above, the binding level of IL-2′ to IL-2Rβ was assayed.

B1: IL-2^3X displayed on the surface of yeasts (ligand)
chain: APTSSSTKKTQLQLEHLLLDLQMILNGINNYKNPKLTDMLTFEFYMPKKATELKHLQCLERELKPLEEVLNLAQSKNFHLRPRDLISNINVIVLELKGSETTFMCEYADETATIVEFLNRWITFSQSIISTLT
notes: control in the flow cytometry staining
B1: no binding (tested: 50 nM IL-2Rα-Biotin).
